Assay: soluble fraction after stress (log2 fold change); higher = more stays soluble; pooled small domains, quantitative proteomics
Conditions: stress: 50 degC
In short: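 The stress applied to every library was 50°C. These custom libraries of small protein domains were pooled and measured at high throughput with quantitative proteomics as the read-out. Aggregation propensity is expressed as the base-two logarithm of the fold change in how much of each protein remains soluble. The higher the value, the more of that protein stays in solution.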

| Sequence | soluble fraction (log2) |
| --- | --- |
| HMPTSPKANFLKELPQEFTRKQAVTIGDKLNIKERTVDNYLAKLEQAGYLVKPKAGYYQKIKS | 0.128 |
| HMEASSTAIQAMIRRLIDDENPRKPLSDAKLADLLKSSGIPVARRTVAKYREAMNISASHERVRI | -0.356 |
| HMEEITLIAEDEGLRLDTWLTDKLKDYSRSYIQKLMEDELVLVNGKARKANYRIKTGDEIHVSIPEPE | -0.0342 |
| HMSNLTDLVSAKEAEVYLHFLESGSTAGMTEAELRAVRKIEELIQSNKIDYNGILRIRNETVK | 0.139 |
| HMGAFAIHTASELSAGMRIRHERFGPGVITGIDTANPASGARIQVDFDNGTSKTLLLSYAKFQI | -0.622 |
| HMNRIEMTEPIIIKDLSRETGIPWVAIQKRLAQDGIMANINTTIEAEKAQLIAVDYGIELAVV | 0.0679 |
| HMIMTIYEYIARNNPTGAKRVIESFGYVVTQPKKMGDNLRMLVAQEGEPALKAVVDLHPDKDLILEV | -2.87 |
| HMNLVELKHAEEFNTLIIQDIGGRMKPAHTLASELVRKVFHNDDFNGIDPRKVFLSIIENSKVWFNVPFI | 0.119 |
| HMKLNKRQYAYQVIRSRILDGTYVPGQRIIIDQIAKEVNSSHIPVREAIHQLESEQLIDYEPNIGAIVKG | 0.285 |
| HMGVREIIVQFLEQFDKPKSVQEIVEYVLRYRNTTENSIRSTMYSGSQFRQFDNGYFGLSDKSYPNEYIYA | -0.603 |
| HMGKRGKEMQTAVLAILRASDRPYSAYELLESLKDIYPKIAPPTVYRALAALTQRGQIRRLESLNAFI | -0.325 |
| HMPMHPEDLKKLVSIEMPFGKHKGRIIADLPGNYLNWFAREGFPPGEIGRLLQLMQEIDHNGLSDLLKPLR | -0.3 |
| HMEYKTGIINTNKVRVRNAADADATVIFAINKDIKVKILAEENGFYKIGVSVKNRGNGEDLIGFVKKELIT | -0.631 |
| HMVDLAPTEEIIKNLPNNSRSLLIPTLQKIQNAYRYLPSPAMELLSEFLNVTRAEIYGVISFYPSLL | 0.0871 |
| HMPNNNDIVLDRVSFGYHEKEVLHGIDMTIREGTVNALVGPSGSGKSTIAKLIAGLWDVDGGSISF | 0.154 |
| HMTFAPTAIPSLTRPMEELMSWSFTPNEAFILSRINGLWDVRSIAKISPFPEGEVLRVFEKLHDGGLIRW | -2.92 |
| HMSEPFDMAVPLTSGGRRLDQVLAELLPQHSRNRLQGWIRDGLLTLDGVTVTEPKRKLAGGEQLALLLP | -0.13 |
| HMDDIHTFVYETETPFDPQKLDRYIGSLTAVYGQDMLRYKGILYFAGVDRRVVFQGVHMLAV | -0.0916 |
| HMLPGERFKVKIAQAGKEKKQGIGYLNDGTMVVIENGIEKVGEEVEAVVIKVIQSSAGKIIFSEVAK | 0.195 |
| HMKREWKDDDPTVPAGWKVAWTTTSDNRAKIAFMSPDKKIFHSRKSALQHMLAAGTYAQSDIEKMTKGL | -0.112 |
| HMNIAAVIGQTGVLQDDLKAGEQGTVKADNKLWTAVLAEGEEAVKKEERVDIVAVEGVKLIVRRNI | 0.0397 |
| HMTGMEASLSKLLQGEQFADLRKALIDKGIRKLEAFKRLNLWVFMNRNRLYSIGQRQTVYSTLQRALASE | 0.0329 |
| HMGESEKTLELVSQKDALVDEAFFFVRFQALLESNKTKGAQDLLDQSNHLSAAKLLQANAYLDIV | 0.119 |
| HMWNLPDPVVRPEGNVTVYENFKNTVEVLNREADLVLKFLQNEFGTSANIDDTGRARLTGSFSTDRVSSVI | -0.214 |
| HMVDPRLRSLTPQERRILEHIAEGLTNRQIAEDMFLAEKTVKNYVTSILDKLGMDSRTQAAVYAATHPT | -0.252 |

| Sequence | soluble fraction (log2) |
| --- | --- |
| HMIKLIKKDTNISELKMSKMPWDVMLYGKPYQVVSIKGYVHTIGGRRGENDLWMYPRDESPTYENLIEFQ | -2.61 |
| HMERRDEINSVVSRYVSAITEGKYDLAEVDETGKLRVQTEGREVLPEALSRGTLEQFYFAFRMAVGSI | -0.118 |
| HMSMDAVSLANRLLRFFQKRPGRKFTAADLAFETGMNERTGKSLVTSALEILSRTNQIEADGDGFRLKM | 0.138 |
| HMQNMVYVATKDIPAGGVIDQDSVSKTAISTSIDTSLYITDDDLGKIAVVNISQGQSVFSNMVGT | 0.0238 |
| HMLPGKEIPLPEFLREAFARNEPALENFQNLAPSYRRQYILWITSAKTPETVQKRISESIGLLKENRKLGM | 0.0472 |
| HMEEPEELYRVKILIYNLLVRNGPGILYTRLRRADYPGEYGIYEEKNGYGKISATLSEWISLNTEYVQRLD | -2 |
| HMGELTNALATLSERERDVARLVAQGLDNRQIAAQLFLSEGTVRNRISDILDKLALTNRTQLAIAWLHAE | -0.588 |
| HMTPQVALNDTETAIYEKMKQEKQMLLGELRAQFDISNKLWDTSLKTLTKNQLLAVSKEDDLLFVKL | 0.113 |
| HMSENIQLQKEQLYQLIAQLPEQRQKIFRLHKIDNYSYQEISDFTGLSRKTIANHIYLAHQFILKKVKK | -3.25 |
| HMRKPISQEIVDEVLKLAKNNPDWGYDRIAGVMKYLKYDVSATTVRHILDDNGIVPDPERRLR | 0.333 |
| HMASLSRRELEVLELLALRLTVKEVAERLVISELTAKRHTSNIYQKLGVNRRRDALAAAQARGLLGAR | -2.9 |
| HMNATLEQLTQREREIAVLMAEGLTNAQIGSRLNVSMASVKAHLSHIFTKLGVDNRVSAAMMVL | -0.654 |
| HMNKAYLTVADMKKDKSLKNGDVVRTLGYYGYNDGDGAVYQIKDSHPEDYHIRLDNGLDAEQINY | 0.012 |
| HMGLKDTEVYMPDVRGLIEEEAQTKLKASFLTMKVSYTSSDEVKKGYVISQAPSADSVVLKGASVTVIVS | -2.07 |
| HMNILDPTVMKNILDKNHEEFIAIYESAPLGQKTIINSMVFDKRLNGENVDANILMYLQNKTNIDYINIEP | -0.167 |
| HMSGEPKNERQIEVPDVTKKSIREANNILTSEGLRLRIEGTGLAVSQKPAAGTMVEPDTIITVTFQAP | 0.35 |
| HMKRKAIDQSWQPDKEAIEILSKAGVNEEFIKEEIPEFILYWSEKGEESDTWNSKFIAQVRRQWAKTQH | -0.0567 |
| HMQERQREGFVQQLRGKYSGQVVMRLFPELQGKALGEFMRKFEAQWEDHEAVLAAMEAHEIESRLKVFK | -0.965 |
| HMVPLSPRFFDIFRKRKDLTRQNVDVYFRDHPTEITAFERYIKGLVSQSYIPAERADALLLVASQYKAK | -0.784 |
| HMKALHEEIAEKIQEQILRSNLAPGDKLDTELELAARYGVSRSTIRQALIQLESAGLIDRLHGRGTFVAD | 0.425 |
| HMAKRDEIEAELPRFVATITQELAASRDVLSMIEHYKQNSGPVFSAELDVLTADMRSGSYEAALTRFEARF | 0.0338 |
| HMNALVAKYKQGVTEEQQQGQGIIIIKRVVVRDQEAWVYEKKIFDWGGVSYFRDKQRITASTFNQETAL | -2.86 |
| HMQFHQDNYALEFIRDLQPVDGAIILSRFKQFDLVELEKAKKIKFSDEHMAWTLYDYDIKKIN | -2.3 |
| HMEKEYMKNVVGMEYRQARVLLGDMGLELAFQPVYETSDKYPTDVVVSTEPAADQPLTKGQTVILHIST | 0.288 |
| HMINAQETEIYRFLIEKANRLYSMVLGLKREELMTATRQFEEEVKHSSIHHLPKIYQAFSSYLELLERG | -0.478 |

| Sequence | soluble fraction (log2) |
| --- | --- |
| HMIDKIRYPELIMKLAHQQGGTIKRRDVEQLLHLQTKQAYRELSKLVDAGELVSVGRGPGAHYEVS | 0.042 |
| HMNPASVLDGLKITSFSPTRAIVAGPGGSRIVFDNEAVVLGGIEWDVHIQRNGIEFTSQGQTVLLLFDRS | -1.21 |
| HMETKKEIIEAINELEEKYRNAIYLTSIEKLSYEETSKILGQSLSNTKNLIHRGKQQLRKILIKK | -0.214 |
| HMDADTVGQIRVVKQILDDGRLIVVDASGNPVLVRRSSALSLTAISQGDRIIVDPSVRLAIELLPNE | 0.185 |
| HMALQDKYKELTDAATAAGVTDLQVREQDNVLYIDGTAPSGAVKDQLWAIYDKIDPNFVSGDLVLNVNVD | 0.0655 |
| HMDNLKELDEILETYGKKKGYLITILQKAQDAYGYISIDIMNRISEFTGIKVAKIYGVATFYAQFRL | 0.146 |
| HMLRTLSTSEFAEAIGISESSARRLADSGDLRIRRTKGGHRKIPAEEAIRYAREIQATVVRPDLLGLST | 0.0109 |
| HMNVPFGYTIKDGLLVEQPDEKAILDNILTWKKGQMTVAEIAKKTGMETWKIYGILNYWRNK | -0.875 |
| HMPSSIEGIEKYLGSGMIRGIGAVYAKRLVKQFGKDVFDIIEETPERLREVEGIGPIRAARIISGWADQ | -0.41 |
| HMGITRQQALQQINQSASPKKILNASLGKRGSEFVWDIGYLSKSGKLNYVTYSFRSGEQLNAIKN | -1.02 |
| HMSRESNISTGRQLLEAQLPTWGYKKVEDIPSKQMKTALDAFNYKDVESLLQGLGEGSVALTTALRRLMP | 0.313 |
| HMLYKNIAKKLRFRINSDEFAIGDVLPTERQLMEEYQASRVSIRKAIDELVAIDLIEKKQGSGTYIKQKEV | -0.919 |
| HMDSQSVFADLVKSLSQKIASIPVWFEYTKNEQYDLISSYVSAKLKDLGVEFSQEEKEKFITMFMNS | -0.267 |
| HMYSLGPKERSIVSFIANRPGSRSGQIAKSLQIPLPTIKRILNGLVENKVIARHGIGAGTNYVVEDQA | -0.594 |
| HMPAAFALLTDREREIAALIAQRLTNREIAEKLYLSEGSVKQYVNQLYAKLGIEGDTRTKRRRLAEQAK | 0.11 |
| HMIFRPALITDLDAVERHYTELLTREAETGRSSTNWSLGVYPTRQTATAAQAAGTLWVLEREGQVVASVI | -0.245 |
| HMKVKIFNGMKLVTNSTGLTVDGKPAALDESNADAKTYSQGLYVFIVYQSGKIAVMQDGKFLGYA | -1.77 |
| HMPELSNNLDRDKVALKNFNESLKDGLTPAEAYANHLTNVSKAAQEAARQSNGLPVDIDKYHNSQLAASMA | 0.273 |
| HMSDRFVRIVMNDGTVKLGQMISEDADFIRLKTNNLGELNIPKYLVLDMMDLTRSEYVRLSISNAG | 0.169 |
| HMSTRLIGEIGVVTKDLGAGLKENGSIQIGREEWPAETKDMEHIPMGTRVKVIHIEGTRLVVEA | -0.629 |
| HMEKPTEITLSNRVSVQELAEKMYVSETDIIRTLFLDGRIININQVLDIDTAIRVGEQLGIKIKII | -0.496 |
| HMGHYGQMTRDLIEKAKTYEEGEEKAALVLTIANLMKRHYLTWNRATVENTLIAEQLKEMSEGALTLPEDV | -0.51 |
| HMEIPTEEILKQKLYYSISEVASWFKVNTSLLRYWENEFDILQPRKTRKGDRLFRVEDIKNLQLIYLL | 0.107 |
| HMTSLYDILGIAKTADSQTIKTAFKKKALLYHPDKNNGNLKKEEIFKKISTAYQILSDPKSRANYDLSIA | -0.115 |
| HMAGPRRRLLDAAIDRAAERGLGDLSLRALAEELGTSHRMLSHHFGSKDGLWLAIVEEVERRQ | -0.952 |

— the domain aggregation screens of Martell et al. (2025)
